US7666414B2

Molecular target: prostate specific membrane antigen (PSMA) on LNCaP cells (human) (UniProt Q04609)

tumor uptake of the 131I-labelled antibody in nude mice bearing LNCaP tumors, one day post injection (% injected dose/gram) (% injected dose/gram): 4.41
Substance: irrelevant IgG antibody
